Measurements as given in the supplement of paper PMC10724198.
± gives the standard deviation of the averaged measurements.

How the values were obtained:
[1] = system: Saccharomyces cerevisiae; test: protein stability index of tFT-peptide fusion (C-terminal peptide) (PSI (0-1 scale)); higher = more stable (slower turnover)
Protocol: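 MPS profiling in S. cerevisiae of the tFT-X12 degron library: putative degron peptides plus stable controls, 12 aa, fused to the C-terminus of a sfGFP-mCherry timer. Cells are FACS-sorted into 8 mCherry/sfGFP bins and deep-sequenced. PSI runs from 0 (unstable) to 1 (stable). Backgrounds are wild type, das1Δ and doa10Δ at 30 °C, and wild type, das1Δ, cdc34-1 and cdc53-1 at 37 °C; 2-3 technical replicates each.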

[2] = system: Saccharomyces cerevisiae; test: as above; conditions: genetic background: wild type; temperature: 30 C
[3] = genetic background: cdc34-1, temperature: 37 C
[4] = genetic background: cdc53-1, temperature: 37 C
[5] = genetic background: das1 deletion, temperature: 30 C
[6] = genetic background: das1 deletion, temperature: 37 C
[7] = genetic background: doa10 deletion, temperature: 30 C
[8] = genetic background: wild type, temperature: 30 C
[9] = genetic background: wild type, temperature: 37 C
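Also: PSI is a weighted mean of sequencing reads over stability bins, variants kept only with over 10 reads, mCherry proximal and sfGFP distal, peptide attached via GGGS linker.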

Sequence	protein stability index [1, 3]	protein stability index [1, 4]	protein stability index [1, 5]	protein stability index [1, 6]	protein stability index [1, 7]	protein stability index [1, 8]	protein stability index [1, 9]	protein stability index [2]
PFGYYLFVPVCY	0.29 ± 0.0094	0.343 ± 0.021	0.265 ± 0.029	0.3985 ± 0.00045	0.238 ± 0.0039	0.25 ± 0.027	0.364 ± 0.0044	0.349 ± 0.0044
PFLPFPPPLPAY	0.4873 ± 0.0045	0.553 ± 0.015	0.394 ± 0.026	0.5646 ± 0.0038	0.362 ± 0.0056	0.408 ± 0.018	0.5079 ± 0.0042	0.0909 ± 0.028
PFYAYHFSLSVY	0.13 ± 0.006	0.164 ± 0.0048	0.103 ± 0.028	0.227 ± 0.015	0.0245 ± 0.0025	0.0234 ± 0.0066	0.0924 ± 0.0037	0.0344 ± 0.01
PIFFFGRLLFFL	0.545 ± 0.045	0.592 ± 0.022	0.467 ± 0.0098	0.5856 ± 0.0046	0.3094 ± 0.0008	0.314 ± 0.014	0.499 ± 0.074	0.369 ± 0.016
PLCCFFLLVCSH	0.117 ± 0.022	0.166 ± 0.005	0.193 ± 0.019	0.2814 ± 0.002	0.165 ± 0.0015	0.176 ± 0.0079	0.221 ± 0.014	0.246 ± 0.023
PLFPPTDSPSPN	0.7098 ± 0.0063	0.729 ± 0.051	0.668 ± 0.025	0.724 ± 0.018	0.685 ± 0.025	0.648 ± 0.015	0.709 ± 0.029	0.727 ± 0.03
PLFVLTILLFLC	0.165 ± 0.042	0.314 ± 0.036	0.258 ± 0.051	0.367 ± 0.017	0.156 ± 0.0098	0.137 ± 0.013	0.179 ± 0.0024	0.1706 ± 0.00068
PLGGLVILLLSS	0.488 ± 0.017	0.541 ± 0.0075	0.349 ± 0.028	0.548 ± 0.014	0.194 ± 0.0033	0.224 ± 0.017	0.4074 ± 0.00071	0.293 ± 0.014
PLLALTSWLFFV	0.5467 ± 0.0033	0.6521 ± 0.0011	0.586 ± 0.012	0.689 ± 0.022	0.165 ± 0.0048	0.173 ± 0.0033	0.268 ± 0.0046	0.254 ± 0.008
PLPHTPAPPPFP	0.6774 ± 0.0011	0.728 ± 0.0098	0.6492 ± 0.0043	0.721 ± 0.036	0.674 ± 0.034	0.676 ± 0.033	0.6992 ± 0.0033	0.508 ± 0.043
PLSRLLPLYFLL	0.405 ± 0.015	0.547 ± 0.00061	0.548 ± 0.017	0.66444 ± 0.00057	0.0797 ± 0.0046	0.0647 ± 0.0097	0.0945 ± 0.018	0.0966 ± 0.0083
PPHPLHIPRRLA	0.631 ± 0.025	0.724 ± 0.026	0.691 ± 0.02	0.743 ± 0.017	0.185 ± 0.0086	0.218 ± 0.022	0.436 ± 0.048	0.226 ± 0.033
PPLSRLAVFIVV	0.4397 ± 0.0027	0.487 ± 0.052	0.359 ± 0.036	0.524 ± 0.008	0.3027 ± 0.0018	0.353 ± 0.025	0.4823 ± 0.003	0.4605 ± 0.0023
PPRPSPPPHPLP	0.658 ± 0.028	0.7181 ± 0.0022	0.6737 ± 0.003	0.727 ± 0.011	0.681 ± 0.017	0.686 ± 0.01	0.6974 ± 0.0035	0.746 ± 0.059
PPVRCVRLPLSS	0.687 ± 0.035	0.744 ± 0.0097	0.649 ± 0.029	0.717 ± 0.01	0.647 ± 0.015	0.6376 ± 0.0037	0.689 ± 0.0054	0.63 ± 0.26
PRFRALLLIPVR	0.0611 ± 0.016	0.158 ± 0.029	0.178 ± 0.046	0.281 ± 0.022	0.14 ± 0.026	0.17 ± 0.018	0.24 ± 0.033	0.27 ± 0.012
PRGFVRVDLLIF	0.302 ± 0.021	0.481 ± 0.07	0.273 ± 0.027	0.442 ± 0.017	0.191 ± 0.0062	0.208 ± 0.031	0.37 ± 0.022	0.383 ± 0.064
PRGKGSSGELCV	0.683 ± 0.038	0.7344 ± 0.0044	0.662 ± 0.025	0.707 ± 0.03	0.6363 ± 0.0063	0.647 ± 0.033	0.712 ± 0.012	0.578 ± 0.15
PRPISRRTLILS	0.642 ± 0.047	0.7053 ± 0.0034	0.545 ± 0.026	0.721 ± 0.0088	0.308 ± 0.0098	0.354 ± 0.023	0.554 ± 0.02	0.472 ± 0.062
PRVPILVVFCSF	0.423 ± 0.013	0.452 ± 0.014	0.286 ± 0.041	0.532 ± 0.016	0.22 ± 0.0097	0.257 ± 0.02	0.463 ± 0.048	0.402 ± 0.063

Sequence	protein stability index [1, 3]	protein stability index [1, 4]	protein stability index [1, 5]	protein stability index [1, 6]	protein stability index [1, 7]	protein stability index [1, 8]	protein stability index [1, 9]	protein stability index [2]
PSFVEVAFAVCC	0.569 ± 0.037	0.555 ± 0.039	0.347 ± 0.045	0.5575 ± 0.0034	0.339 ± 0.03	0.366 ± 0.0077	0.541 ± 0.019	0.451 ± 0.058
PTKRLFNNNKKI	0.589 ± 0.13	0.686 ± 0.057	0.649 ± 0.03	0.731 ± 0.013	0.184 ± 0.0066	0.161 ± 0.03	0.408 ± 0.024	0.308 ± 0.015
PWAQCVLLWVVV	0.459 ± 0.043	0.495 ± 0.021	0.397 ± 0.032	0.5401 ± 0.0014	0.329 ± 0.015	0.359 ± 0.025	0.4776 ± 0.004	0.457 ± 0.0064
PWIASCRISFLL	0.6766 ± 0.0032	0.734 ± 0.014	0.6 ± 0.0099	0.7393 ± 0.0037	0.338 ± 0.0046	0.347 ± 0.012	0.532 ± 0.029	0.402 ± 0.0046
QARVFWIIIGTA	0.33 ± 0.029	0.412 ± 0.03	0.241 ± 0.029	0.482 ± 0.011	0.163 ± 0.011	0.194 ± 0.026	0.376 ± 0.023	0.343 ± 0.0078
QFLSLSLPFALF	0.7057 ± 0.0026	0.763 ± 0.014	0.64 ± 0.029	0.748 ± 0.054	0.428 ± 0.041	0.45 ± 0.019	0.636 ± 0.052	0.524 ± 0.036
QHIDTLAKTHIT	0.73 ± 0.036	0.74493 ± 0.00055	0.632 ± 0.008	0.7219 ± 0.005	0.605 ± 0.03	0.634 ± 0.033	0.7 ± 0.012	0.606 ± 0.15
QTGRVRGFVVSG	0.689 ± 0.037	0.726 ± 0.024	0.632 ± 0.032	0.723 ± 0.02	0.645 ± 0.021	0.65 ± 0.008	0.719 ± 0.028	0.701 ± 0.048
RALCPVPLLASS	0.55 ± 0.0098	0.59 ± 0.034	0.435 ± 0.026	0.5981 ± 0.00094	0.427 ± 0.026	0.455 ± 0.018	0.553 ± 0.024	0.502 ± 0.1
RCFLPVFCFVVF	0.275 ± 0.0069	0.272 ± 0.0068	0.242 ± 0.037	0.413 ± 0.006	0.278 ± 0.014	0.227 ± 0.023	0.36 ± 0.0038	0.314 ± 0.018
RDWCYFIRVCSV	0.604 ± 0.064	0.616 ± 0.017	0.479 ± 0.026	0.6139 ± 0.006	0.364 ± 0.015	0.382 ± 0.021	0.561 ± 0.01	0.383 ± 0.12
RFACHDFVVLLC	0.568 ± 0.023	0.605 ± 0.022	0.453 ± 0.017	0.626 ± 0.026	0.172 ± 0.0095	0.17 ± 0.029	0.303 ± 0.017	0.289 ± 0.0045
RFFLFVFFCFGF	0.384 ± 0.0046	0.387 ± 0.038	0.383 ± 0.034	0.4787 ± 0.0021	0.402 ± 0.0047	0.365 ± 0.045	0.437 ± 0.013	0.436 ± 0.014
RFLCFDSVLTLC	0.626 ± 0.011	0.6674 ± 0.0055	0.56 ± 0.028	0.6748 ± 0.00086	0.32119 ± 0.00015	0.348 ± 0.026	0.546 ± 0.02	0.463 ± 0.024
RFQKTRIFRCLC	0.455 ± 0.002	0.66 ± 0.015	0.57 ± 0.022	0.6796 ± 0.0058	0.0979 ± 0.0052	0.117 ± 0.015	0.137 ± 0.0058	0.18 ± 0.028
RFTCCISLSFLM	0.498 ± 0.013	0.492 ± 0.044	0.467 ± 0.011	0.472 ± 0.014	0.491 ± 0.059	0.489 ± 0.033	0.4341 ± 0.0021	0.489 ± 0.01
RFTFSVVFCLSF	0.465 ± 0.011	0.5 ± 0.018	0.432 ± 0.011	0.504 ± 0.023	0.451 ± 0.022	0.436 ± 0.026	0.47 ± 0.012	0.47 ± 0.038
RGDWPVFIQVKA	0.285 ± 0.032	0.309 ± 0.04	0.262 ± 0.035	0.426 ± 0.022	0.205 ± 0.022	0.255 ± 0.043	0.387 ± 0.023	0.418 ± 0.05
RGGGGGTWVKMG	0.592 ± 0.011	0.733 ± 0.0075	0.653 ± 0.029	0.758 ± 0.012	0.118 ± 0.025	0.135 ± 0.02	0.217 ± 0.016	0.258 ± 0.055
